Measured values from PMC5549741, “Engineering double-stranded RNA binding activity into the Drosha double-stranded RNA binding domain results in a loss of microRNA processing function”.

T1: Drosha-Quad dsRBD (human, UniProt Q9NRR4 1259-1337, K1262I;I1317K;Q1318K;E1321K)
T1 sequence: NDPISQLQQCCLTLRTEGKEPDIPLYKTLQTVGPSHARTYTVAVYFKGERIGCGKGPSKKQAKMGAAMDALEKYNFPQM

B1: pri-mir-16-1 (structured_RNA)
RNA: GGGUGAUAGCAAUGUCAGCAGUGCCUUAGCAGCACGUAAAUAUUGGCGUUAAGAUUCUAAAAUUAUCUCCAGUAUUAACUGUGCUGCUGAAGUAAGGUUGACCAUACUCUAC
B2: ds44 (dsRNA)
RNA 1: GGUCAGCAGUGCCUUAGCAGCACGUAAAUAUUGGCGUUAAGACC
RNA 2: GGUCUUAACGCCAAUAUUUACGUGCUGCUAAGGCACUGCUGACC
B3: ds33 (dsRNA)
RNA 1: GGUCAGCAGUGCCUUAGCAGCACGUAAAUAUGG
RNA 2: CCAUAUUUACGUGCUGCUAAGGCACUGCUGACC
B4: ds22 (dsRNA)
RNA 1: GUCAGCAGUGCCUUAGCAGCAC
RNA 2: GUGCUGCUAAGGCACUGCUGAC

Target: T1, Drosha-Quad dsRBD
Assay: EMSA; 50 mM sodium cacodylate pH 6.0, 50 mM KCl, 5% glycerol, 1 mM DTT, 0.1 mg/mL BSA, 0.1 mg/mL herring sperm DNA, 30 min at room temperature; 10% native gel at 4 C; Hill fit
Conditions: protein: recombinant, tags: pET-47b(+) vector
[1] = label: 5'-32P top strand, blunt

Binder | Kd (label: 32P (5' end implied), hairpin, stem region contains 39 bp) | Kd [1]
B1 | 2.8 ± 0.1 µM | 
B2 |  | 6.5 ± 0.6 µM
B3 |  | 7.8 ± 0.2 µM
B4 |  | 13.4 ± 0.4 µM
